Test results taken from patent US20240181022A1, “AMURINS LYSINS, AND LYSIN-ANTIMICROBIAL PEPTIDE (AMP) CONSTRUCTS ACTIVE AGAINST GRAM-NEGATIVE BACTERIA” (priority 2021, published 2024).
“And” between values parts separate entries of the source, which are not always exact repeats. Equal values may be shown once. Read-outs that look alike come from different tables or passages of the source.

Tests used:
B. cenocepacia = test: Checkerboard synergy assay with meropenem against B. cenocepacia; type: cell-based, Burkholderia cenocepacia; conditions: for MIC (dual agent): GN370 + meropenem; for FICmin / FICmin interpretation: GN370 with meropenem
Excerpt: In some embodiments, the Chp peptides disclosed herein or active fragments thereof reduce the minimum inhibitory concentration (MIC) of an antibiotic in the presence and/or absence of human serum, pulmonary surfactant, and/or sputum, including human sputum and human sputum from a cystic fibrosis patient. Any known method to assess MIC may be used. In some embodiments, a checkerboard assay is used to determine the effect of a Chp peptide or active fragment thereof on antibiotic concentration. The checkerboard assay is based on a modification of the CLSI method for MIC determination by broth microdilution (See Clinical and Laboratory Standards Institute (CLSI), CLSI. 2015. Methods for Dilution Antimicrobial Susceptibility Tests for Bacteria That Grow Aerobically; Approved Standard-10th Edition. Clinical and Laboratory Standards Institute, Wayne, PA, which is herein incorporated by reference in its entirety and Ceri et al. 1999. J. Clin. Microbiol. 37: 1771-1776, which is also herein incorporated by reference in its entirety).
Checkerboards are constructed by first preparing columns of e.g., a 96-well polypropylene microtiter plate, wherein each well has the same amount of antibiotic diluted 2-fold along the horizontal axis. […] The Chp peptide or active fragment thereof and antibiotic dilutions are then combined, so that each column has a constant amount of antibiotic and doubling dilutions of Chp peptide, while each row has a constant amount of Chp peptide and doubling dilutions of antibiotic. Each well thus has a unique combination of Chp peptide and antibiotic. Bacteria are added to the drug combinations at concentrations of 1×10^5 GFU/ml in CAA, for example, with or without human serum or pulmonary surfactant. […] Summation fractional inhibitory concentrations (ΣFICs) are calculated for each drug and the minimum ΣFIC value (ΣFICmin) is used to determine the effect of the Chp peptide/antibiotic combination.
The synergy of GN370 with meropenem was evaluated against 3 different strains of P. aeruginosa and three different strains of B. cenocepacia.

P. aeruginosa = test: Checkerboard synergy assay (FICI) with antibiotics against P. aeruginosa; type: cell-based, Pseudomonas aeruginosa; design: key to average FICI score with amikacin: FICI: ≤0.5 synergy, >0.5–≤1 additive, >1 indifferent; conditions: for MIC (dual agent): GN370 + meropenem
Procedure, shortened: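 Checkerboard of 2-fold antibiotic dilutions crossed with GN370 (lysin peptide), bacteria at 1×10^5 CFU/ml in CAA, with or without human serum or pulmonary surfactant. ΣFICmin taken as FICI: ≤0.5 synergy, >0.5–≤1 additive, >1 indifferent.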

E. coli = test: MBEC against E. coli biofilm; type: cell-based, Escherichia coli; conditions: MDR and XDR E. coli (11)
P. apista = type: cell-based, Pandoraea apista; conditions: P. apista (15); 2-hour treatment
Procedure: The MBEC (after 2-hour treatments) was determined as described in Jones and Wozniak, PsI Produced by Mucoid Pseudomonas aeruginosa Contributes to the Establishment of Biofilms and Immune Evasion, Am. Soc. Microbiol. 2017, 8(3):e00864-17. Meropenem and tobramycin were included as controls and were both poorly active, with MBEC90 values of >256 μg/mL (data not shown).

A. xylosoxidans = type: cell-based, Achromobacter xylosoxidans
Procedure: MIC values were determined using a modification of the standard broth microdilution reference method defined by the Clinical and Laboratory Standards Institute (CLSI), CLSL. 2015. Methods for Dilution Antimicrobial Susceptibility Tests for Bacteria That Grow Aerobically; Approved Standard-10th Edition. Clinical and Laboratory Standards Institute, Wayne, PA. The modification was based on the replacement of Mueller Hinton Broth with either CAA media (with and without NaCl) or CAA supplemented with 2.5% human serum. MIC is the minimum concentration of peptide sufficient to suppress at least 80% of the bacterial growth compared to control.
The MICs for were determined as described below using the broth microdilution method for meropenem, GN370, AM1, AM2, and AM3. The results are shown below in Tables 8-12.
The activity of GN370 and AM1 was evaluated against various bacterial isolates, including mucoid and α-hemolytic isolates of P. aeruginosa, MDR isolates, and carbapenem-resistant isolates.

[1] = P. aeruginosa (ATCC 27853, CFS 1766)
[2] = P. aeruginosa (ATCC 27853, CFS 1766), GN370 with meropenem
[3] = P. aeruginosa (CFS 2045), GN370 with meropenem
[4] = P. aeruginosa (CFS 2061), GN370 with meropenem
[5] = P. aeruginosa strain AR-769, GN370 with Amikacin
[6] = P. aeruginosa strain AR-769, GN370 with Cefepime
[7] = P. aeruginosa strain AR-769, GN370 with Ceftazidime
[8] = P. aeruginosa strain AR-769, GN370 with Ciprofloxacin
[9] = P. aeruginosa strain AR-769, GN370 with Colistin
[10] = P. aeruginosa strain AR-769, GN370 with Meropenem
[11] = P. aeruginosa strain AR-769, GN370 with Tobramycin
[12] = P. aeruginosa strain AR-769, in combination with Amikacin
[13] = P. aeruginosa strain AR-769, in combination with Cefepime
[14] = P. aeruginosa strain AR-769, in combination with Ceftazidime
[15] = P. aeruginosa strain AR-769, in combination with Ciprofloxacin
[16] = P. aeruginosa strain AR-769, in combination with Meropenem
[17] = P. aeruginosa strain AR-769, in combination with Tobramycin
[18] = Achromobacter xylosoxidans, N 11 (Table 26)

B1: GN370: lysin-AMP construct, SEQ ID NO: 149: MIDR, FIRL and NPTH moieties N-terminal to GN202 lysin (protein)
chain: MIDRFIRLNPTHGPRRPRRPGRRAPVRTSQRGIDLIKSFEGLRLSAYQDSVGVWTIGYGTTRGVTRYMTITVEQAERMLSNDIQRFEPELDRLAKVPLNQNQWDALMSFVYNLGAANLASSTLLDLLNKGDYQGAADQFPHWVNAGGKRLDGLVKRRAAERALFLEPLS
modifications: GN370 lysin
What does the source list for B1?
MIC (alone) (B. cenocepacia; B. cenocepacia (CFS 2135)): 128 µg/mL; MIC (dual agent) (B. cenocepacia; B. cenocepacia (CFS 2135)): 64 µg/mL; FICmin (B. cenocepacia; B. cenocepacia (CFS 2135)): 1.5; FICmin interpretation (B. cenocepacia; B. cenocepacia (CFS 2135)): (Indifferent); MIC (alone) (B. cenocepacia; B. cenocepacia (CFS 2138)): 256 µg/mL; MIC (dual agent) (B. cenocepacia; B. cenocepacia (CFS 2138)): 128 µg/mL; FICmin (B. cenocepacia; B. cenocepacia (CFS 2138)): 1.5; FICmin interpretation (B. cenocepacia; B. cenocepacia (CFS 2138)): (Indifferent); MIC (alone) (B. cenocepacia; B. cenocepacia (CFS 2142)): 256 µg/mL; MIC (dual agent) (B. cenocepacia; B. cenocepacia (CFS 2142)): 128 µg/mL; FICmin (B. cenocepacia; B. cenocepacia (CFS 2142)): 1; FICmin interpretation (B. cenocepacia; B. cenocepacia (CFS 2142)): (Additive); synergy with meropenem (B. cenocepacia; three strains of B. cenocepacia): not against B. cenocepacia; GN370 FIC (P. aeruginosa): 0.125; synergy with meropenem (P. aeruginosa; 3 strains of P. aeruginosa): synergizes with meropenem against P. aeruginosa; MIC (alone) (P. aeruginosa; [1]): 1 µg/mL; MIC (dual agent) (P. aeruginosa; [1]): 0.06 µg/mL; FICmin (P. aeruginosa; [2]): 0.091; FICmin interpretation (P. aeruginosa; [2]): (Synergy); MIC (alone) (P. aeruginosa; P. aeruginosa (CFS 2045)): 2 µg/mL; MIC (dual agent) (P. aeruginosa; P. aeruginosa (CFS 2045)): 0.06 µg/mL; FICmin (P. aeruginosa; [3]): 0.155; FICmin interpretation (P. aeruginosa; [3]): (Synergy); MIC (alone) (P. aeruginosa; P. aeruginosa (CFS 2061)): 4 µg/mL; MIC (dual agent) (P. aeruginosa; P. aeruginosa (CFS 2061)): 0.25 µg/mL; FICmin (P. aeruginosa; [4]): 0.125; FICmin interpretation (P. aeruginosa; [4]): (Synergy); GN370 MIC (single agent) (P. aeruginosa; P. aeruginosa strain AR-769): 2 µg/mL; FICave (P. aeruginosa; [5]): 0.323; FICmin (P. aeruginosa; [5]): 0.281; FICave (P. aeruginosa; [6]): 0.542 and 0.419; FICmin (P. aeruginosa; [6]): 0.5 and 0.375; FICave (P. aeruginosa; [7]): 1.073; FICmin (P. aeruginosa; [7]): 1.031; FICave (P. aeruginosa; [8]): 0.543 and 0.417; FICmin (P. aeruginosa; [8]): 0.5 and 0.375; FICave (P. aeruginosa; [9]): 0.292; FICmin (P. aeruginosa; [9]): 0.25; FICave (P. aeruginosa; [10]): 0.422 and 0.419; FICmin (P. aeruginosa; [10]): 0.375; FICave (P. aeruginosa; [11]): 0.418; FICmin (P. aeruginosa; [11]): 0.375; average FICI score with amikacin (P. aeruginosa; P. aeruginosa strain AR-769, checkerboard): 0.323; GN370 FIC (P. aeruginosa; [12]): 0.031; GN370 MIC (combo) (P. aeruginosa; [12]): 0.063 µg/mL; GN370 FIC (P. aeruginosa; [13]): 0.25; GN370 MIC (combo) (P. aeruginosa; [13]): 0.5 µg/mL; GN370 FIC (P. aeruginosa; [14]): 0.031; GN370 MIC (combo) (P. aeruginosa; [14]): 0.063 µg/mL; GN370 FIC (P. aeruginosa; [15]): 0.25; GN370 MIC (combo) (P. aeruginosa; [15]): 0.5 µg/mL; GN370 MIC (combo) (P. aeruginosa; P. aeruginosa strain AR-769, in combination with Colistin): 0.25 µg/mL; GN370 FIC (P. aeruginosa; [16]): 0.25; GN370 MIC (combo) (P. aeruginosa; [16]): 0.5 µg/mL; GN370 FIC (P. aeruginosa; [17]): 0.25; GN370 MIC (combo) (P. aeruginosa; [17]): 0.5 µg/mL; MBEC50 (E. coli): 0.5 µg/mL; MBEC90 (E. coli): 2 µg/mL; MBEC Range (E. coli): 0.25 to 2 µg/mL; Number of isolates at MBEC 0.5 μg/mL (E. coli): 5; Number of isolates at MBEC 1 μg/mL (E. coli): 2; Number of isolates at MBEC 2 μg/mL (E. coli): 2; Number of isolates at MBEC […] (E. coli): 2; MBEC50 (P. apista): 32 µg/mL; MBEC90 (P. apista): 64 µg/mL; MBEC Range (P. apista): 8 to 64 µg/mL; MIC50 (A. xylosoxidans; A. xylosoxidans isolates): 8 µg/mL; MIC90 (A. xylosoxidans; A. xylosoxidans isolates): > 32 µg/mL; MIC (A. xylosoxidans; A. xylosoxidans test organism of the sputum time-kill assay): GN370 (MIC = 0.25); MIC50 (A. xylosoxidans; [18]): >64 µg/mL; MIC90 (A. xylosoxidans; [18]): >64 µg/mL
